Legend:
mIL2Rg ECD antigen = target: T1, mIL2Rg ECD antigen (murine, UniProt P34902 23-263); test: PE-ELISA of phage clones
T1 construct: The immunogen was the ECD fused to human IgG1 hinge and Fc; also called ECD of IL2Rg (mouse)
T1 sequence: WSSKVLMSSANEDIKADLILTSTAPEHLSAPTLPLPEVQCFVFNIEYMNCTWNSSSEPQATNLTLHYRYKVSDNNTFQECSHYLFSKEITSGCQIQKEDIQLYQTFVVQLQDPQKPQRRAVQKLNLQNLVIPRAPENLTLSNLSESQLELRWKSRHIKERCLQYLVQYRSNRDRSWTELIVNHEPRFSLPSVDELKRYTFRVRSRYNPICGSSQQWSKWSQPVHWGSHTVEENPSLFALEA

hIL2Rg ECD antigen = target: T2, hIL2Rg ECD antigen (human, UniProt P31785 23-262); test: PE-ELISA of phage clones
T2 construct: The immunogen was the ECD fused to human IgG1 hinge and Fc; also called ECD of IL2Rg (human); human IL-2Rγ
T2 sequence: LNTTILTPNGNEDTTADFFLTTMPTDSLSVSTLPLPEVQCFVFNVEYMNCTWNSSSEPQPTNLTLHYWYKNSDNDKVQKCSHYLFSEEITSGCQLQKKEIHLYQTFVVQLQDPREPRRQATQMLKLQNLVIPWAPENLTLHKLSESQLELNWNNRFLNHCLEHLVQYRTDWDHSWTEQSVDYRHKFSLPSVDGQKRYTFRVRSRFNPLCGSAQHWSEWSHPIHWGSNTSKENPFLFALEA

B1: mIL2Rg_VHH6 (VHH)
VHH: QVQLQESGGGSVQAGGSLRLSCATSGFPYSRYCMGWFRQAPGKEREGVAAIEPDGSTSYADSVKGRFTISQDNAVNTLYLQMNNLKPEDTAMYYCAADERCFYLKDYDLRRPAQYRYWGQGTQVTVSS
notes: As a his-tagged phage clone periplasmic extract
mIL2Rg ECD antigen
  binding result: binds

B2: mIL2Rg_VHH4 (VHH)
VHH: QVQLQESGGGSVQAGGSLRLSCIGSGLPFDEDDMGWYRQAPGNECELVSSISSDGTAYYADSVKGRFTISRDNAKNTVLLQMNSLKPEDTAVYYCAAGVHRQFGGSSSCGDAFYGMDYWGKGTQVTVSS
notes: as for B1
mIL2Rg ECD antigen
  binding result: binds

B3: hIL2Rg_VHH-10 (VHH)
VHH: QVQLQESGGGSVQAGGSLRLSCAASGSIYSSAYIGWFRQAPGKKREGVAGIYTRDGSTAYADSVKGRFTISQDSAKKTVYLQMNSLKPEDTAMYYCAAGRRTKSYVYIFRPEEYNYWGQGTQVTVSS
notes: as for B1
hIL2Rg ECD antigen
  binding result: binds

B4: hIL2Rg_VHH-9 (VHH)
VHH: QVQLQESGGGSVQAGGSLRLSCTASGFTFDDSDMGWYRQAPGGECELVTISSDGSTYYADSVKGRFTISQDNAKNTVYLQMNSLKPEDTAVYYCAAEPRGYYSNYGGRRECNYWGQGTQVTVSS
notes: as for B1
hIL2Rg ECD antigen
  binding result: binds

B5: hIL2Rg_VHH-14 (VHH)
VHH: QVQLQESGGGSVQAGGSLKLSCTVSGFTADDSDMGWYRQGPGNECELVTISSDGSTYYADSVKGRFTISQDNAKNTVYLQMNSLKPEDTAVYYCAAEPRGYYSNYGGRRECNYWGQGTQVTVSS
notes: as for B1
hIL2Rg ECD antigen
  binding result: binds

B6: mIL2Rg_VHH3 (VHH)
VHH: QVQLQESGGGSVQAGASLRLSCSVSGFTFDESVMSWLRQGPGNECDAVAIISSDDNTYYDDSVKGRFTISEDNAKNMVYLQMNSLKPEDTAVYYCAARRRRPVYDSDYELRPRPLCGDFGVWGQGTQVTVSS
notes: as for B1
mIL2Rg ECD antigen
  binding result: binds

B7: mIL2Rg_VHH5 (VHH)
VHH: QVQLQESGGGSVQAGGSLRLSCVASGDVYGRNSMAWFRQAPGKEREGVAVGYSVVTTTYYADSVKGRFTISEDNDKNTVYLEMNSLKPEDTAMYYCAADGNLWRGLRPSEYTYWGQGTQVTVSS
notes: as for B1
mIL2Rg ECD antigen
  binding result: binds

B8: hIL2Rg_VHH-5 (VHH)
VHH: QVQLQESGGGSVQAGGSLRLSCAASGFSFSSYPMTWARQAPGKGLEWVSTIASDGGSTAYAASVEGRFTISRDNAKSTLYLQLNSLKTEDTAMYYCTKGYGDGTPAPGQGTQVTVSS
notes: as for B1
hIL2Rg ECD antigen
  binding result: binds

B9: hIL2Rg_VHH-18 (VHH)
VHH: QVQLQESGGGLVQPGGSLRLSCAASGFTFSSYPMTWARQAPGKGLEWVSTIASDGGSTAYAASVEGRFTISRDNAKSTLYLQLNSLKTEDTAMYYCTKGYGDGTPAPGQGTQVTVSS
notes: as for B1
hIL2Rg ECD antigen
  binding result: binds

B10: mIL2Rg_VHH12 (VHH)
VHH: QVQLQESGGGSVLAGGSLRLSCVASGYGYNYIGWFRQTPGKEREGVAVIYIGGGDTYYADSVKGRFTASRDNAKSTLYLQMNSLEPEDTAMYYCVARYCVGSVYACLRGGHDEYAHWGQGTQVTVSS
notes: as for B1
mIL2Rg ECD antigen
  binding result: binds

B11: mIL2Rg_VHH13 (VHH)
VHH: QVQLQESGGGSVLAGGSLRLSCVASGYGYNYIGWFRQTPGKEREGVAVIYTGGGDTYYADSVKGRFTASRDNAKSTLYLQMNSLEPEDTAMYYCVARYCVGSVYACLRGGHDEYAHWGQGTQVTVSS
notes: as for B1
mIL2Rg ECD antigen
  binding result: binds

B12: mIL2Rg_VHH2 (VHH)
VHH: QVQLQESGGGSVQPGGSLRLSCAASGSTYANYLMGWFRQAPGKEREGVAAIYSGGGSTYYADSVKGRFTISQDNAKNTLYLQMNSLKPEDTAMYYCAAASAVKGDKGDIVVVVTGTQRMEYDYWGHGTQVTVSS
notes: as for B1
mIL2Rg ECD antigen
  binding result: binds

B13: hIL2Rg_VHH-4 (VHH)
VHH: QVQLQESGGGSVQAGGSLRLSCTASGFTFDDSDMGWYRQAPGNECELVSTISSDGNTYYTDSVKGRFTISQDNAKNTVYLQMNSLGPEDTAVYYCAAEPRGYYSNYGGRRECNYWGQGTQVTVSS
notes: as for B1
hIL2Rg ECD antigen
  binding result: binds

B14: hIL2Rg_VHH-13 (VHH)
VHH: QVQLQESGGGSVQAGGSLRLSCTASRFIFDDSDMGWYRQAPGNECELVSTISSDGSTYYADSVKGRFTISRDNAKNTVYLQMNSLKPEDTAVYYCAAEPRGYYSNYGGRRECNYWGQGTQVTVSS
notes: as for B1
hIL2Rg ECD antigen
  binding result: binds

B15: mIL2Rg_VHH7 (VHH)
VHH: QVQLQESGGGLVQPGGSLRLSCTVSGFTFDESDMGWLRQNPGNECGVVSVITSDDNPYYDDSVKGRFTISEDNAKNMVYLQMNSLKPEDTGVYYCATRSRQPVYSRDYELRPRPLCGDFGVWGQGTQVTVSS
notes: as for B1
mIL2Rg ECD antigen
  binding result: binds

B16: hIL2Rg_VHH-17 (VHH)
VHH: QVQLQESGGGLVQPGGSLRLSCAASGFTFSNAHMSWVRQAPGKGREWISSIYSGGSTWYADSVKGRFTISRDNSKNTLYLQLNSLKTEDTAMYYCAENRLHYYSDDDSLRGQGTQVTVSS
notes: as for B1
hIL2Rg ECD antigen
  binding result: binds

B17: hIL2Rg_VHH-16 (VHH)
VHH: QVQLQESGGGLVQPGGSLRLSCVASGFTFSNAHMSWVRQAPGKGREWISSIYSGGSTWYADSVKGRFTISRDNSKNTLYLQLNSLKTEDTAMYYCAENRLHYYSDDDSLRGQGTQVTVSS
notes: as for B1
hIL2Rg ECD antigen
  binding result: binds

B18: hIL2Rg_VHH-12 (VHH)
VHH: QVQLQESGGGSVQAGGSLRLSCAASGFTFSNAHMSWVRQAPGKGREWISSIYSGGSTWYADSVKGRFTISRDNSKNTLYLQLNSLKTEDTAMYYCAENRLHYYSDDDSLRGQGTQVTVSS
notes: as for B1
hIL2Rg ECD antigen
  binding result: binds

B19: hIL2Rg_VHH-6 (VHH)
VHH: QVQLQESGGGAVQAGGSLRLSCAASGFTFSNAHMSWVRQAPGKGREWISSIYSGGSTWYADSVKGRFTISRDNSKNTLYLQLNSLKTEDTAMYYCAENRLHYYSDDDSLRGQGTQVTVSS
notes: as for B1
hIL2Rg ECD antigen
  binding result: binds

B20: hIL2Rg_VHH-11 (VHH)
VHH: QVQLQESGGGSVQAGGSLRLSCAASGFTFSSAHMSWVRQAPGKGREWIASIYSGGGTFYADSVKGRFTISRDNAKNTLYLQLNSLKTEDTAMYYCATNRLHYYSDDDSLRGQGTQVTVSS
notes: as for B1
hIL2Rg ECD antigen
  binding result: binds

B21: mIL2Rg_VHH9 (VHH)
VHH: QVQLQESGGGSVQAGGSLRLSCAASGFTFDDFDMGWYRQAPGNECELVSTISDDGSTYYADSVKGRSSISRDNAKNTVYLQMNSLKPEDTAVYYCAAEGALGSKTNCGWVGNFGYWGQGTQVTVSS
notes: as for B1
mIL2Rg ECD antigen
  binding result: binds

B22: mIL2Rg_VHH8 (VHH)
VHH: QVQLQESGGGSVQAGGSLRLSCTASGFTFDDFDMGWYRQAPGNECELVSTISDDGSTYYADSVKGRSSISRDNAKNTVYLQMNRLKPEDTGVYYCAAEGALGSKTNCGWVGNFGYWGQGTQVTVSS
notes: as for B1
mIL2Rg ECD antigen
  binding result: binds

B23: mIL2Rg_VHH15 (VHH)
VHH: QVQLQESGGGSVQAGGSLRLSCTASGFTFDDFDMGWYRQAPGNECELVSTISDDGSTYYADSVKGRSSISRDNAKNTVYLQMNRLKPEDTGVYYCAAEGALGSKMNCGWVGNFGYWGQGTQVTVSS
notes: as for B1
mIL2Rg ECD antigen
  binding result: binds

B24: mIL2Rg_VHH11 (VHH)
VHH: QVQLQESGGGLVQPGGSLKLSCAASGFTFSDRDMGWYRQAPGNECERVSTISDDGSTYYADSVKGRSSISRDNAKNTVYLQMNSLKPEDTAVYYCAAEGALGSKTNCGWVGNFGYWGQGTQVTVSS
notes: as for B1
mIL2Rg ECD antigen
  binding result: binds

B25: mIL2Rg_VHH10 (VHH)
VHH: QVQLQESGGGLVQPGGSLRLSCAASGFTFDDFDMGWYRQAPGNECELVSTISDDGSTYYADSVKGRSSISRDNAKSTVYLQMNRLKPEDTGVYYCAAEGALGSKTNCGWVGNFGYWGQGTQVTVSS
notes: as for B1
mIL2Rg ECD antigen
  binding result: binds

B26: mIL2Rg_VHH14 (VHH)
VHH: QVQLQESGGGSVQAGGSLRLSCAASGFTFDDFDMGWYRQAPGNECELVSTISDDGSTYYANSVKGRSSISRDNAKNMVYLQMNSLKPEDTAVYYCAAEGALGSKTNCGWVGNFGYWGQGTQVTVSS
notes: as for B1
mIL2Rg ECD antigen
  binding result: binds
